Consider 1 molecule from patent US8420776B2, “Ube2G2 binding domain in the ubiquitin ligase gp78 and methods of use thereof” (The United States of America, as Represented by the …, priority 2004, dated 2013).

This test deals with T1, UbcH5B (Homo sapiens, UniProt P62837).
T1 construct: made in house; host or cells: in vitro translation in wheat germ
The test can be described thus: GST pull-down binding of in vitro translated UbcH5B. The following applies: GST fusion pull-down. The protocol: GST fusions were purified from E. Coli. Binding was carried out using equi-molar amount of fusion proteins measured by Commassie blue staining. Generally, 20 picomoles/sample were used. In vitro translated E2 was generated by coupled transcription and translation using 35S methionine in either wheat germ or rabbit reticulocyte lysate. Binding assays using in vitro translated E2 was carried out by incubating GST protein pre-bound to Glutathione-sepharose 4B with […] of ^35S-methionine labeled E2 in binding buffer (25 mM Tris-HCl, pH 7.4; 50 mM NaCl, 5 mM DTT; and 0.5% NP-40) overnight at 4° C. Beads were washed with binding buffer and resolved by SDS-PAGE under reducing conditions. Analysis was by Storm PhosphoImager (Applied Biosystems, Foster City, Calif.). Direct binding assays used wild type His6-MmUbc7 (His6-Ube2G2) and Glutathione-sepharose bound GST fusions. Beadbound GST protein was incubated with 100 ng purified His6-MmUbc7 in binding buffer and washed and eluted as above. After transfer to Hybond-P (Amersham Biosciences) binding was assessed with anti-His6 followed by Enhanced Chemiluminescence ECL; Pierce). Ubiquitin binding studies were performed with binding and washing as above using 1 μg K48 tetra-ubiquitin produced as described (Piotrowski et al., 1997). Detection was by anti-ubiquitin immunoblotting. […]

T1 sequence (P62837 whole entry): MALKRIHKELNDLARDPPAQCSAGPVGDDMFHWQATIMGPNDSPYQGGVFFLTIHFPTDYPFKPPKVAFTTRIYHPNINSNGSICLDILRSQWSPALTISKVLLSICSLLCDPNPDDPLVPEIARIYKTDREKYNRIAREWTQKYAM

B1: AO7: GST fusion of the RING finger and surrounding regions of the unrelated E3 enzyme AO7 (protein)
chain: QIHKISQALGHVAKEGLGTAMLYELIEKGKEILTDNNIPHGQCVICLYGFQEKEAFTKTPCYHYFHCHCLARYIQHMEQELTTQEQEQERQHVVTKQKAVGVQCPVCREPLVYDLASLKAAPEPQQPMELYQPSAESLRQQEELKLLYQRQQEKGGIIDLEAERNRYF
modifications: left off: a dimerising Fc or GST
With B1, the “binding to in vitro translated UbcH5B” value is on record as “did bind”.
